Our source for the Kd values is PMC9352680, “A comprehensive thermodynamic model for RNA binding by the Saccharomyces cerevisiae Pumilio protein PUF4”.

The chains are these.
T1: PUF4 RNA-binding domain (Saccharomyces cerevisiae, UniProt P25339 537-888)
T1 sequence: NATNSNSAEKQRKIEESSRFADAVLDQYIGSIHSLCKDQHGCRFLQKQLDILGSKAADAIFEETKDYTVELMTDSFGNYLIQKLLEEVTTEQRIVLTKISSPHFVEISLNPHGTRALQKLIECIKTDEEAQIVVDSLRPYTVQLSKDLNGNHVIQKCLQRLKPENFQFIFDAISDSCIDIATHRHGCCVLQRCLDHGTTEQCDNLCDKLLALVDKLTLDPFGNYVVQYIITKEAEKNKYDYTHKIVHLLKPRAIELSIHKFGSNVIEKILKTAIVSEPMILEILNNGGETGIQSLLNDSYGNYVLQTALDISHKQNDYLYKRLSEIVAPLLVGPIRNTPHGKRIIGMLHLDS

The target in the data set is T1, PUF4 RNA-binding domain. The data set can be described thus: Mg; RNA-MaP; 20 mM Na-HEPES pH 7.4, 30 mM KOAc, 0.75 mM MgCl2, 0.1% Tween-20, 5% glycerol, 0.1 mg/mL BSA, 2 mM DTT; 25 C; 0.0125-409.6 nM protein. To be noted: tags: N-His6-TEV cleaved; C-SNAP kept, Cy3B-labelled; label: tethered on chip by stalled RNA polymerase.
As usually defined, the Kd is the concentration at which binding is half-saturated. Read a low Kd as a tighter complex. With UCUCUUCGUGUAUAUUAGGUCUCUU (ssRNA) [Id_ii_S1_P4E.2_K4.1_C4.2_[T-1G]_H4.1_A4.1_F4.1_T4.2_[T11G]], the Kd is 0.943 nM. The molecule UCUCUUCAUGUAUAUUAUCUCUCUU (ssRNA) [Id_ii_S1_P4E.2_K4.1_C4.2_[T-1A]_H4.1_A4.1_F4.1_T4.2_[G10T]_[T11C]] had a Kd of 0.967 nM. Turning to UCUCUUCCUGUAUAUUAGUUCUCUU (ssRNA) [Id_ii_S1_P4E.2_K4.1_C4.2_[T-1C]_H4.1_A4.1_F4.1_T4.2], binding was put at a Kd of 0.262 nM. UCUCUUCGUGUAUAUUAAGUCUCUU (ssRNA) [Id_ii_S1_P4E.2_K4.1_C4.2_[T-1G]_H4.1_A4.1_F4.1_T4.2_[G10A]_[T11G]] registered a Kd of 3.06 nM. For the molecule UCUCUUAUUGUAUAUUAUAUCUCUU (ssRNA) [Id_ii_S1_P4E.2_K4.1_C4.2_[C-2A]_H4.1_A4.1_F4.1_T4.2_[G10T]_[T11A]], the affinity, expressed as Kd, was 1.12 nM. UCUCUUCGUGUAUAUUAGUUCUCUU (ssRNA) [Id_ii_S1_P4E.2_K4.1_C4.2_[T-1G]_H4.1_A4.1_F4.1_T4.2] returned a Kd of 0.399 nM. On to UCUCUUCGUGUAUAUUAUCUCUCUU (ssRNA) [Id_ii_S1_P4E.2_K4.1_C4.2_[T-1G]_H4.1_A4.1_F4.1_T4.2_[G10T]_[T11C]], for which the Kd worked out at 0.874 nM.

Regarding UCUCUUAUUGUAUAUUAACUCUCUU (ssRNA) [Id_ii_S1_P4E.2_K4.1_C4.2_[C-2A]_H4.1_A4.1_F4.1_T4.2_[G10A]_[T11C]], the Kd worked out at 1.01 nM. For the molecule UCUCUUCAUGUAUAUUAGCUCUCUU (ssRNA) [Id_ii_S1_P4E.2_K4.1_C4.2_[T-1A]_H4.1_A4.1_F4.1_T4.2_[T11C]], the Kd was 0.425 nM.

As to UCUCUUUGUCGAUUAUCUCUU (ssRNA) [Ib_S1_P4E.1_K4.1_C4.1_H4.1_[A4C]_A4.1_[T5G]_F4.1_T4.1], binding was characterised by a dissociation constant (Kd) of 336 nM. As for UCUCUUCAUGUAUAUUACCUCUCUU (ssRNA) [Id_ii_S1_P4E.2_K4.1_C4.2_[T-1A]_H4.1_A4.1_F4.1_T4.2_[G10C]_[T11C]], the figure is 0.916 nM. The molecule UCUCUUCUUGUAUAUUACUUCUCUU (ssRNA) [Id_ii_S1_P4E.2_K4.1_C4.2_H4.1_A4.1_F4.1_T4.2_[G10C]] registered a Kd of 0.702 nM. Take UCUCUUCAUGUAUAUUAUUUCUCUU (ssRNA) [Id_ii_S1_P4E.2_K4.1_C4.2_[T-1A]_H4.1_A4.1_F4.1_T4.2_[G10T]]: the Kd came out at 0.915 nM. With UCUCUUCAUGUAUAUUAAUUCUCUU (ssRNA) [Id_ii_S1_P4E.2_K4.1_C4.2_[T-1A]_H4.1_A4.1_F4.1_T4.2_[G10A]], the Kd was 1.1 nM. For UCUCUUCUUGUAUAUUAACUCUCUU (ssRNA) [Id_ii_S1_P4E.2_K4.1_C4.2_H4.1_A4.1_F4.1_T4.2_[G10A]_[T11C]], the Kd worked out at 0.862 nM.

Regarding UCUCUUCCUGUAUAUUAUCUCUCUU (ssRNA) [Id_ii_S1_P4E.2_K4.1_C4.2_[T-1C]_H4.1_A4.1_F4.1_T4.2_[G10T]_[T11C]], binding was characterised by a dissociation constant (Kd) of 0.601 nM. For the molecule UCUCUUCCUGUAUAUUAUUUCUCUU (ssRNA) [Id_ii_S1_P4E.2_K4.1_C4.2_[T-1C]_H4.1_A4.1_F4.1_T4.2_[G10T]], the Kd was 0.724 nM. The molecule UCUCUUCUUGUAUAUUAUGUCUCUU (ssRNA) [Id_ii_S1_P4E.2_K4.1_C4.2_H4.1_A4.1_F4.1_T4.2_[G10T]_[T11G]] came in with a Kd of 0.808 nM. The molecule UCUCUUCCUGUAUAUUACUUCUCUU (ssRNA) [Id_ii_S1_P4E.2_K4.1_C4.2_[T-1C]_H4.1_A4.1_F4.1_T4.2_[G10C]] showed a Kd of 0.91 nM. The molecule UCUCUUCUUGUAUAUUAUAUCUCUU (ssRNA) [Ie_S1_P3E.2_K3.1_C3.2_H3.1_A3.1_[+6T]_F3.1_T3.2] displayed a dissociation constant (Kd) of 0.724 nM. In turn, UCUCUUCCUGUAUAUUAUAUCUCUU (ssRNA) [Id_ii_S1_P4E.2_K4.1_C4.2_[T-1C]_H4.1_A4.1_F4.1_T4.2_[G10T]_[T11A]] registered a Kd of 0.96 nM.

For UCUCUUCUUGUAUAUUAUUUCUCUU (ssRNA) [Id_ii_S1_P4E.2_K4.1_C4.2_H4.1_A4.1_F4.1_T4.2_[G10T]], the Kd was 0.541 nM.

For the molecule UCUCUUUGCAUACUAUCUCUU (ssRNA) [Ib_S1_P4E.1_K4.1_C4.1_H4.1_[T3C]_A4.1_[T7C]_F4.1_T4.1], binding was put at a Kd of 117 nM. With UCUCUUCUUGUAUAUUAAAUCUCUU (ssRNA) [Id_ii_S1_P4E.2_K4.1_C4.2_H4.1_A4.1_F4.1_T4.2_[G10A]_[T11A]], the Kd amounted to 0.971 nM.

The molecule UCUCUUCAUGUAUAUUAGUUCUCUU (ssRNA) [Id_ii_S1_P4E.2_K4.1_C4.2_[T-1A]_H4.1_A4.1_F4.1_T4.2] came in with a Kd of 0.326 nM. As to UCUCUUAUUGUAUAUUAAUUCUCUU (ssRNA) [Id_ii_S1_P4E.2_K4.1_C4.2_[C-2A]_H4.1_A4.1_F4.1_T4.2_[G10A]], the Kd was 1.16 nM. Turning to UCUCUUCAUGUAUAUUAAGUCUCUU (ssRNA) [Id_ii_S1_P4E.2_K4.1_C4.2_[T-1A]_H4.1_A4.1_F4.1_T4.2_[G10A]_[T11G]], the Kd was found to be 2.41 nM. Regarding UCUCUUCCUGUAUAUUAACUCUCUU (ssRNA) [Id_ii_S1_P4E.2_K4.1_C4.2_[T-1C]_H4.1_A4.1_F4.1_T4.2_[G10A]_[T11C]], the dissociation constant (Kd) stood at 0.991 nM. For the molecule UCUCUUCAUGUAUAUUAAAUCUCUU (ssRNA) [Id_ii_S1_P4E.2_K4.1_C4.2_[T-1A]_H4.1_A4.1_F4.1_T4.2_[G10A]_[T11A]], the dissociation constant Kd worked out at 1.57 nM.

The molecule UCUCUUCCUGUAUAUUAAAUCUCUU (ssRNA) [Id_ii_S1_P4E.2_K4.1_C4.2_[T-1C]_H4.1_A4.1_F4.1_T4.2_[G10A]_[T11A]] returned a Kd of 1.26 nM.

Consider UCUCUUUGCAUAGUAUCUCUU (ssRNA) [Ib_S1_P4E.1_K4.1_C4.1_H4.1_[T3C]_A4.1_[T7G]_F4.1_T4.1], for which the Kd turned out to be 647 nM.

Consider UCUCUUCCUGUAUAUUAAGUCUCUU (ssRNA) [Id_ii_S1_P4E.2_K4.1_C4.2_[T-1C]_H4.1_A4.1_F4.1_T4.2_[G10A]_[T11G]], for which the Kd worked out at 1.9 nM. As for UCUCUUCAUGUAUAUUAGGUCUCUU (ssRNA) [Id_ii_S1_P4E.2_K4.1_C4.2_[T-1A]_H4.1_A4.1_F4.1_T4.2_[T11G]], the figure is 1.02 nM; as for UCUCUUCUUGUAUAUUACCUCUCUU (ssRNA) [Id_ii_S1_P4E.2_K4.1_C4.2_H4.1_A4.1_F4.1_T4.2_[G10C]_[T11C]], 0.733 nM; as for UCUCUUAUUGUAUAUUAGCUCUCUU (ssRNA) [Id_ii_S1_P4E.2_K4.1_C4.2_[C-2A]_H4.1_A4.1_F4.1_T4.2_[T11C]], 0.714 nM. Consider UCUCUUCCUGUAUAUUAUGUCUCUU (ssRNA) [Id_ii_S1_P4E.2_K4.1_C4.2_[T-1C]_H4.1_A4.1_F4.1_T4.2_[G10T]_[T11G]], for which the Kd is 1.01 nM. In the case of UCUCUUCAUGUAUAUUAACUCUCUU (ssRNA) [Id_ii_S1_P4E.2_K4.1_C4.2_[T-1A]_H4.1_A4.1_F4.1_T4.2_[G10A]_[T11C]], the Kd was determined as 1.15 nM. Regarding UCUCUUCCUGUAUAUUAAUUCUCUU (ssRNA) [Id_ii_S1_P4E.2_K4.1_C4.2_[T-1C]_H4.1_A4.1_F4.1_T4.2_[G10A]], the Kd turned out to be 0.693 nM. Under UCUCUUCGUGUAUAUUAAUUCUCUU (ssRNA) [Id_ii_S1_P4E.2_K4.1_C4.2_[T-1G]_H4.1_A4.1_F4.1_T4.2_[G10A]] stands 1.2 nM. Molecule UCUCUUCAUGUAUAUUACUUCUCUU (ssRNA) [Id_ii_S1_P4E.2_K4.1_C4.2_[T-1A]_H4.1_A4.1_F4.1_T4.2_[G10C]] yielded a Kd of 1.07 nM.

UCUCUUAUUGUAUAUUAUUUCUCUU (ssRNA) [Id_ii_S1_P4E.2_K4.1_C4.2_[C-2A]_H4.1_A4.1_F4.1_T4.2_[G10T]]: the Kd is 0.453 nM. With UCUCUUAUUGUAUAUUAAAUCUCUU (ssRNA) [Id_ii_S1_P4E.2_K4.1_C4.2_[C-2A]_H4.1_A4.1_F4.1_T4.2_[G10A]_[T11A]], binding was put at a Kd of 0.655 nM. Molecule UCUCUUUGCAUUUUAUCUCUU (ssRNA) [Ib_S1_P4E.1_K4.1_C4.1_H4.1_[T3C]_A4.1_[A6T]_F4.1_T4.1] registered a Kd of 1640 nM. UCUCUUAUUGUAUAUUAGUUCUCUU (ssRNA) [Id_ii_S1_P4E.2_K4.1_C4.2_[C-2A]_H4.1_A4.1_F4.1_T4.2] registered a Kd of 0.431 nM. As for UCUCUUCGUGUAUAUUAUUUCUCUU (ssRNA) [Id_ii_S1_P4E.2_K4.1_C4.2_[T-1G]_H4.1_A4.1_F4.1_T4.2_[G10T]], the affinity, expressed as Kd, was 1.19 nM.
